51 variants from the RNAGym collection of RNA variant scans (doi:10.1101/gr.219683.116) can be followed below.

The chains are these.
B1: mRNA-splicing (parent)
chain: AGUUGCUGCUGGGAGCUCCAGCACAGUGAAAUGGACAGAAGGGCAGAGCAA

The series covers variants of B1. The series is described as follows: exon inclusion enrichment index; higher = more inclusion; WT1 exon 5 minigene, HEK293.
For AGUUUCUUUUGGGAGCUCCAGCACAGGCAAAUGGACAGAAGGGCAGAGCAA [G5U G8U C9U U27G G28C], the “exon inclusion enrichment index” value is 0.027. In the case of AGUUUCUUUUGGGAGCUCCAGCACAGGAAAAUGGACAGAAGGGCAGAGCAA [G5U G8U C9U U27G G28A], the “exon inclusion enrichment index” value is 0.148. With AGUUUCUUUUGGGAGCUCCAGCACAGGUAAAUGGACAGAAGGGCAGAGCAA [G5U G8U C9U U27G G28U], the “exon inclusion enrichment index” value amounted to 0.000678. Turning to AGUUUCUUUUGGGAGCAGCAGCACAGUGAAAUGGACAGAAGGGCAGAGCAA [G5U G8U C9U U17A C18G], the “exon inclusion enrichment index” value came to 0.0888.

For the variant AGUUUCUUUUGGGAGCAUCAGCACAGUGAAAUGGACAGAAGGGCAGAGCAA [G5U G8U C9U U17A C18U], the “exon inclusion enrichment index” value was 0.0627. For the variant AGUUUCUUUUGGGAGCAACAGCACAGUGAAAUGGACAGAAGGGCAGAGCAA [G5U G8U C9U U17A C18A], the “exon inclusion enrichment index” value was found to be 0.0626. Take AGUUUCAUUUGGGAGCUCCAGCACAGUGAAAUGGACAGAAGGGCAGAGCAA [G5U U7A G8U C9U]: the “exon inclusion enrichment index” value stood at 0.343. Turning to AGUUUCAUAUGGGAGCUCCAGCACAGUGAAAUGGACAGAAGGGCAGAGCAA [G5U U7A G8U C9A], the “exon inclusion enrichment index” value was determined as 0.367.

For the variant AGUUGAUCAAGGGAGCUCCAGCACAGUGAAAUGGACAGAAGGGCAGAGCAA [C6A G8C C9A U10A], the “exon inclusion enrichment index” value is 0.392. As for AGUUGAUCACGGGAGCUCCAGCACAGUGAAAUGGACAGAAGGGCAGAGCAA [C6A G8C C9A U10C], the “exon inclusion enrichment index” value was 1.49. Regarding AGUUUCUUUUGGGAGCUCCAGCACAGUGAAAUGGACAGAAGGUCAGAGCAA [G5U G8U C9U G43U], the “exon inclusion enrichment index” value was determined as 0.16.

Consider AGUUUCUUUUGGGAGCUCCAGCACAGUGAAAUGGACAGAAGGCCAGAGCAA [G5U G8U C9U G43C], for which the “exon inclusion enrichment index” value came out at 0.199. Take AGUUUCCUUUGGGAGCUCCAGCACAGUGAAAUGGACAGAAGGGCAGAGCAA [G5U U7C G8U C9U]: the “exon inclusion enrichment index” value amounted to 0.184. The figure for AGUUUCCACCGGGAGCUCCAGCACAGUGAAAUGGACAGAAGGGCAGAGCAA [G5U U7C G8A U10C] is 1.83. Consider AGUUUCCACAGGGAGCUCCAGCACAGUGAAAUGGACAGAAGGGCAGAGCAA [G5U U7C G8A U10A], for which the “exon inclusion enrichment index” value worked out at 0.168. Consider AGUUUCCAUUGGGAGCUCCAGCACAGUGAAAUGGACAGAAGGGCAGAGCAA [G5U U7C G8A C9U], for which the “exon inclusion enrichment index” value came out at 0.504. Regarding AGUUUCUUUAAGGAGCUCCAGCACAGUGAAAUGGACAGAAGGGCAGAGCAA [G5U G8U C9U U10A G11A], the “exon inclusion enrichment index” value is 0.0324. Regarding AGUUUCUUUAUGGAGCUCCAGCACAGUGAAAUGGACAGAAGGGCAGAGCAA [G5U G8U C9U U10A G11U], the “exon inclusion enrichment index” value is 0.0867. Under AGUUUCUUUACGGAGCUCCAGCACAGUGAAAUGGACAGAAGGGCAGAGCAA [G5U G8U C9U U10A G11C] stands 0.155. Under AGUUUCUUUUGGGAGCUCCAGCACAGUGAAAUGGACAGAAGGAUAGAGCAA [G5U G8U C9U G43A C44U] stands 0.177; under AGUUUCUUUUGGGAGCUCCAGCACAGUGAAAUGGACAGAAGGAGAGAGCAA [G5U G8U C9U G43A C44G], 0.749; under AGUUUCUUUGUGGAGCUCCAGCACAGUGAAAUGGACAGAAGGGCAGAGCAA [G5U G8U C9U U10G G11U], 0.498.

AGUUUCUUUGAGGAGCUCCAGCACAGUGAAAUGGACAGAAGGGCAGAGCAA [G5U G8U C9U U10G G11A]: the “exon inclusion enrichment index” value is 0.429. Regarding AGUUUCUUUGCGGAGCUCCAGCACAGUGAAAUGGACAGAAGGGCAGAGCAA [G5U G8U C9U U10G G11C], the “exon inclusion enrichment index” value was found to be 0.742. Under AGUUUCUUUUGGGAGCUCCAGCACAGGGAAAUGGACAGAAGGGCAGAGCAA [G5U G8U C9U U27G] stands 0.0266.

As for AGUUUCUUUUGGGAGCUCCAGCACAGAGAAAUGGACAGAAGGGCAGAGCAA [G5U G8U C9U U27A], the “exon inclusion enrichment index” value stood at 0.208. On to AGUUUCUUUUGGGAGCUCCAGCACAGCGAAAUGGACAGAAGGGCAGAGCAA [G5U G8U C9U U27C], for which the “exon inclusion enrichment index” value came out at 0.478.

Consider AGUUUCGUUUGGGAGCUCCAGCACAGUGAAAUGGACAGAAGGGCAGAGCAA [G5U U7G G8U C9U], for which the “exon inclusion enrichment index” value came to 0.893.

For the variant AGUUUCUUUUGGGAGCUCCAGCACAGACAAAUGGACAGAAGGGCAGAGCAA [G5U G8U C9U U27A G28C], the “exon inclusion enrichment index” value came out at 0.109.

As to AGUUUCUUUUGGGAGCUCCAGCACAGAAAAAUGGACAGAAGGGCAGAGCAA [G5U G8U C9U U27A G28A], the “exon inclusion enrichment index” value stood at 0.173.

Consider AGUUUCUUUUGGGAGCUCCAGCACAGAUAAAUGGACAGAAGGGCAGAGCAA [G5U G8U C9U U27A G28U], for which the “exon inclusion enrichment index” value came to 0.0328. The figure for AGUUUCUUUUGGGAGCUCCAGCACAGUGAAAUGGACAGAAGGGCAAGGCAA [G5U G8U C9U G46A A47G] is 0.0611; for AGUUUCUUUUGGGAGCUCCAGCACAGUGAAAUGGACAGAAGGGCAACGCAA [G5U G8U C9U G46A A47C] it is 0.466. Take AGUUUCUUUUGGGAGCUCCAGCACAGUGAAAUGGACAGAAGGGCAAUGCAA [G5U G8U C9U G46A A47U]: the “exon inclusion enrichment index” value worked out at 0.164.

In the case of AGUUUCUUUUGGGAGCUCCAGCACAGUGAAAUGGACAGAAGGGCACUGCAA [G5U G8U C9U G46C A47U], the “exon inclusion enrichment index” value was determined as 0.15. The figure for AGUUUCUUUUGGGAGCUCCAGCACAGUGAAAUGGACAGAAGGGCACGGCAA [G5U G8U C9U G46C A47G] is 0.306. Regarding AGUUUCUUUUGGGAGCUCCAGCACAGUGAAAUGGACAGAAGGGCACCGCAA [G5U G8U C9U G46C A47C], the “exon inclusion enrichment index” value was found to be 0.234. Turning to AGUUUCCGUUGGGAGCUCCAGCACAGUGAAAUGGACAGAAGGGCAGAGCAA [G5U U7C C9U], the “exon inclusion enrichment index” value is 0.916.

As to AGUUUCUUUUGGGAGCUCCAGCACAGUGAAAUGGACAGAAGGCAAGAGCAA [G5U G8U C9U G43C C44A], the “exon inclusion enrichment index” value was found to be 0.722.

On to AGUUUCUUUUGGGAGCUCCAGCACAGUGAAAUGGACAGAAGGCUAGAGCAA [G5U G8U C9U G43C C44U], for which the “exon inclusion enrichment index” value is 0.0876. As to AGUUUCUUUUGGGAGCUCCAGCACAGUGAAAUGGACAGAAGGCGAGAGCAA [G5U G8U C9U G43C C44G], the “exon inclusion enrichment index” value is 1.3.

For the variant AGUUGAUGAAGGGAGCUCCAGCACAGUGAAAUGGACAGAAGGGCAGAGCAA [C6A C9A U10A], the “exon inclusion enrichment index” value is 0.333.

Turning to AGUUGAUGACGGGAGCUCCAGCACAGUGAAAUGGACAGAAGGGCAGAGCAA [C6A C9A U10C], the “exon inclusion enrichment index” value worked out at 2.01. Consider AGUUUCAGAAGGGAGCUCCAGCACAGUGAAAUGGACAGAAGGGCAGAGCAA [G5U U7A C9A U10A], for which the “exon inclusion enrichment index” value is 0.286. The figure for AGUUUCCGACGGGAGCUCCAGCACAGUGAAAUGGACAGAAGGGCAGAGCAA [G5U U7C C9A U10C] is 2.66; for AGUUUCUUUUGGGAGCCUCAGCACAGUGAAAUGGACAGAAGGGCAGAGCAA [G5U G8U C9U U17C C18U] it is 0.0755. Under AGUUUCUUUUGGGAGCCACAGCACAGUGAAAUGGACAGAAGGGCAGAGCAA [G5U G8U C9U U17C C18A] stands 0.0484; under AGUUUCUUUUGGGAGCCGCAGCACAGUGAAAUGGACAGAAGGGCAGAGCAA [G5U G8U C9U U17C C18G], 0.151; under AGUUUCUUUUGGGAGCUCCAGCACAGCAAAAUGGACAGAAGGGCAGAGCAA [G5U G8U C9U U27C G28A], 0.135.

Consider AGUUUCUUUUGGGAGCUCCAGCACAGCUAAAUGGACAGAAGGGCAGAGCAA [G5U G8U C9U U27C G28U], for which the “exon inclusion enrichment index” value was 0.0729.

As to AGUUUCUUUUGGGAGCUCCAGCACAGCCAAAUGGACAGAAGGGCAGAGCAA [G5U G8U C9U U27C G28C], the “exon inclusion enrichment index” value worked out at 0.257.
